Test results reported in publication PMC2002144.

Target: epidermal growth factor receptor (EGFr) (human (endogenous in human breast tumours)) (UniProt P00533)
Test: radioligand binding; labelled EGF on membrane protein of human breast tumours; multipoint Scatchard analyses and 2 point assays; saturation assay with 1 nM labelled EGF, 100 ug membrane protein, 100 nM unlabelled EGF for non-specific binding, volume 400 ul with buffer; constant of the high affinity site (2 binding sites found)

KD, high affinity site: 300 to 600 pM
Substance: epidermal growth factor (EGF), labelled (from UniProt P01132 977-1029) (ligand)
